In patent publication US20060084085:

Experiments:
[1] = target: T1, Ku70 peptide 16 (amino acids 325-341)
T1 chain: RQIILEKEETEELKRFD

[2] = target: recombinant Ku70/80 complex, P13010
[3] = target: T2, peptide 29 variant that retained K542 (KRRR)
T2 chain: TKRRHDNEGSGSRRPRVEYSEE

[4] = target: T3, Ku70 peptide 29 (amino acids 541-562)
T3 chain: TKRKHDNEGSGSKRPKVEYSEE

[5] = target: T4, peptide 29 variant that retained K553 (RRKR)
T4 chain: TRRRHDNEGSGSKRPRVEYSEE

[6] = target: T5, Ku70 peptide 15 (amino acids 310-322)
T5 chain: LLLPSDTKRSQIY

[7] = target: T6, Ku70 peptide 8 (amino acids 157-173)
T6 chain: VQFKMSHKRIMLFTNED

[8] = target: T7, Ku70 peptide 3 (amino acids 44-58)
T7 chain: ASKAMFESQSEDELT

[9] = target: acetylated Ku70-K331 peptide
[10] = target: T8, acetylated Ku70 K542 peptide PEGKVTK-AcRKHDNC
T8 chain: PEGKVTKRKHDNC

[11] = target: T9, acetylated Ku70 K539 peptide DYNPEGK-AcVTKRKC
T9 chain: DYNPEGKVTKRKC

Chain of recombinant Ku70/80 complex, P13010 (chain, as listed by the source, chain 1 of 2): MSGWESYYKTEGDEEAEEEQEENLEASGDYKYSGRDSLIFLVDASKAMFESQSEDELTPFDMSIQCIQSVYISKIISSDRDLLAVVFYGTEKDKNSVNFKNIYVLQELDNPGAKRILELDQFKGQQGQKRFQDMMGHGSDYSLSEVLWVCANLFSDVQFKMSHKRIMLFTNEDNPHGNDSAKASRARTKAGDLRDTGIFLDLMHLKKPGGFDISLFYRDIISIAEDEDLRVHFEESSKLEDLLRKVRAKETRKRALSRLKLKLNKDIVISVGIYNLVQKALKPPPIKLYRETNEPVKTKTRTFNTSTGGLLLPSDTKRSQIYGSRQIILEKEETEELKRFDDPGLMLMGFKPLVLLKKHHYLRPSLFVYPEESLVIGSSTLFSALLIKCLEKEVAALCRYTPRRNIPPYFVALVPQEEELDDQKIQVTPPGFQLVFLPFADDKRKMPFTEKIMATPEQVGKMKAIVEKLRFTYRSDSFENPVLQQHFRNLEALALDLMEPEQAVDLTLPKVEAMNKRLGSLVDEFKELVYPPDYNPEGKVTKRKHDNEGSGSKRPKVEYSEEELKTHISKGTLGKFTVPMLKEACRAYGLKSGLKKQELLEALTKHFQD
Chain of recombinant Ku70/80 complex, P13010 (P13010 whole entry, chain 2 of 2): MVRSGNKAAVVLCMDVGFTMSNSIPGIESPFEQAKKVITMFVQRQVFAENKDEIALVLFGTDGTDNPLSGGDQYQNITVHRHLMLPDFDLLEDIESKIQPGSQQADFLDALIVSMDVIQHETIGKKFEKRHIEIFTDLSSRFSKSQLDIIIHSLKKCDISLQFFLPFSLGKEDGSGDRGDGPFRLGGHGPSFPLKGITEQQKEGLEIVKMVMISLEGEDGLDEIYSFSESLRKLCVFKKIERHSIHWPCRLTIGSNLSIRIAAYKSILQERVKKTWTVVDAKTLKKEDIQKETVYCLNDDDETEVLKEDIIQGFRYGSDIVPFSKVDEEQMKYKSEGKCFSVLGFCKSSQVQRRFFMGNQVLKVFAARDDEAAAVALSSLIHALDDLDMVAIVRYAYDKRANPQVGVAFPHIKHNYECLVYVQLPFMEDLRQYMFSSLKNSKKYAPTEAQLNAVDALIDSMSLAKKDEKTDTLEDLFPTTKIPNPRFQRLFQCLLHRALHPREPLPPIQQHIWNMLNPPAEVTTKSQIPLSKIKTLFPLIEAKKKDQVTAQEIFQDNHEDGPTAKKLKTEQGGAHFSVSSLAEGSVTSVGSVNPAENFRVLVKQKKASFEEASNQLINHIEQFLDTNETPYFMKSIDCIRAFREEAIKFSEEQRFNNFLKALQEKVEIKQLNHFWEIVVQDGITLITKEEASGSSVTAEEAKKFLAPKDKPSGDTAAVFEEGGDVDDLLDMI

B1: recombinant histone acetyltransferase (HAT) domain of CBP (protein)
chain: LEALYRQDPESLPFRQPVDPQLLGIPDYFDIVKNPMDLSTIKRKLDTGQYQEPWQYVDDVWLMFNNAWLYNRKTSRVYKFCSKLAEVFEQEIDPVMQSLGYCCGRKYEFSPQTLCCYGKQLCTIPRDAAYYSYQNRYHFCEKCFTEIQGENVTLGDDPSQPQTTISKDQFEKKKNDTLDPEPFVDCKECGRKMHQICVLHYDIIWPSGFVCDNCLKKTGRPRKENKFSAKRLQTTRLGNHLEDRVNKFLRRQNHPEAGEVFVRVVASSDKTVEVKPGMKSRFVDSGEMSESFPYRTKALFAFEEIDGVDVCFFGMHVQEYGSDCPPPNTRRVYISYLDSIHFFRPRCLRTAVYHEILIGYLEYVKKLGYVTGHIWACPPSEGDDYIFHCHPPDQKIPKPKRLQEWYKKMLDKAFAERIIHDYKDIFKQATEDRLTSAKELPYFEGDFWPNVLEESIKELEQEEEERKKEESTAASETTEGSQGDSKNAKKKNNKKTNKNKSSISRANKKKPSMPNVSNDLSQKLYATMEKHKEVFFVIHLHAGPVINTLPPIVDPDPLLSCDLMDGRDAFLTLARDKHWEFSSLRRSKWSTLCMLVELHTQGQDRFVYTCNECKHHVETRWHCTVCEDYDLCINCYNTKSHAHKMVKWGLGLDDEGSSQGE
**Q.** Which results are given for B1?
**A.** in vitro acetylation of Ku70 peptides [1]: only two (16 and 29) were strongly acetylated by both PCAF and CBP; in vitro acetylation (3H-acetyl-CoA, SDS-PAGE, autoradiography) [2]: a strongly labeled band corresponding to the size of Ku70 was observed in each of the complete acetyltransferase reactions; Based on the intensity of the bands, CBP has the strongest preference for Ku70; in vitro acetylation of peptide 29 variants [3]: the peptide that retained K542 (KRRR) was the preferred target of both PCAF and CBP and was acetylated to almost the same extent as the original peptide 29 (KKKK); in vitro acetylation of Ku70 peptides [4]: only two (16 and 29) were strongly acetylated by both PCAF and CBP; in vitro acetylation of peptide 29 variants [5]: K553 (RRKR) was also weakly acetylated by PCAF and CBP

B2: recombinant histone acetyltransferase (HAT) domain of PCAF (protein)
chain: MLEEEVYSQNSPIWDQDFLSASSRTSQLGIQTVINPPPVAGTISYNSTSSSLEQPNAGSSSPACKASSGLEANPGEKRKMTDSHVLEEAKKPRVMGDIPMELINEVMSTITDPAAMLGPETNFLSAHSARDEAARLEERRGVIEFHVVGNSLNQKPNKKILMWLVGLQNVFSHQLPRMPKEYITRLVFDPKHKTLALIKDGRVIGGICFRMFPSQGFTEIVFCAVTSNEQVKGYGTHLMNHLKEYHIKHDILNFLTYADEYAIGYFKKQGFSKEIKIPKTKYVGYIKDYEGATLMGCELNPRIPYTEFSVIIKKQKEIIKKLIERKQAQIRKVYPGLSCFKDGVRQIPIESIPGIRETGWKPSGKEKSKEPRDPDQLYSTLKSILQQVKSHQSAWPFMEPVKRTEAPGYYEVIRFPMDLKTMSERLKNRYYVSKKLFMADLQRVFTNCKEYNPPESEYYKCANILEKFFFSKIKEAGLIDK
**Q.** Which results are given for B2?
**A.** Relative Intensity of Acetylation [1]: +++; Relative Intensity of Acetylation [6]: +++; in vitro acetylation (3H-acetyl-CoA, SDS-PAGE, autoradiography) [2]: a strongly labeled band corresponding to the size of Ku70 was observed in each of the complete acetyltransferase reactions; Relative Intensity of Acetylation [7]: ++; in vitro acetylation of peptide 29 variants [3]: the peptide that retained K542 (KRRR) was the preferred target of both PCAF and CBP and was acetylated to almost the same extent as the original peptide 29 (KKKK); Relative Intensity of Acetylation [4]: +++++; Relative Intensity of Acetylation [8]: +; in vitro acetylation of peptide 29 variants [5]: K553 (RRKR) was also weakly acetylated by PCAF and CBP

B3: recombinant histone acetyltransferase (HAT) domain of p300 (protein)
chain: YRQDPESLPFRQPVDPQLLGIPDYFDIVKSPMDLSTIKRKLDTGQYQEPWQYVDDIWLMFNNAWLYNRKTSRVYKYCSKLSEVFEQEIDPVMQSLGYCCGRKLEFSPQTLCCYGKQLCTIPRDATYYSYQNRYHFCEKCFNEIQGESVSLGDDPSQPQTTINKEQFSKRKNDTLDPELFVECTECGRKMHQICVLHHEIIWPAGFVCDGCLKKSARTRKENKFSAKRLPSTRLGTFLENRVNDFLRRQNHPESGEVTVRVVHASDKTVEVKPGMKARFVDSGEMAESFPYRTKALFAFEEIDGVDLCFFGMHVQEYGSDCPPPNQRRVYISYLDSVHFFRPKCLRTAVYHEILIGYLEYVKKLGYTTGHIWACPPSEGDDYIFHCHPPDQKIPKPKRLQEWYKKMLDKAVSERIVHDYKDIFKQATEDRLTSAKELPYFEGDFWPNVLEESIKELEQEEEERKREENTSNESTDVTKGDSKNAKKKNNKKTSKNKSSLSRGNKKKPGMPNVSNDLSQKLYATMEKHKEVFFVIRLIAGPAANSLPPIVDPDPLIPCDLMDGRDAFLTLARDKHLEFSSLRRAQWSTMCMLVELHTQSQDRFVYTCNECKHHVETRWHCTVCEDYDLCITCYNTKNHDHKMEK
**Q.** For B3, which “in vitro acetylation (3H-acetyl-CoA, SDS-PAGE, autoradiography)” value [2] is on record?
**A.** a strongly labeled band corresponding to the size of Ku70 was observed in each of the complete acetyltransferase reactions

B4: human SIRT1 (protein)
chain: MADEAALALQPGGSPSAAGADREAASSPAGEPLRKRPRRDGPGLERSPGEPGGAAPEREVPAAARGCPGAAAAALWREAEAEAAAAGGEQEAQATAAAGEGDNGPGLQGPSREPPLADNLYDEDDDDEGEEEEEAAAAAIGYRDNLLFGDEIITNGFHSCESDEEDRASHASSSDWTPRPRIGPYTFVQQHLMIGTDPRTILKDLLPETIPPPELDDMTLWQIVINILSEPPKRKKRKDINTIEDAVKLLQECKKIIVLTGAGVSVSCGIPDFRSRDGIYARLAVDFPDLPDPQAMFDIEYFRKDPRPFFKFAKEIYPGQFQPSLCHKFIALSDKEGKLLRNYTQNIDTLEQVAGIQRIIQCHGSFATASCLICKYKVDCEAVRGDIFNQVVPRCPRCPADEPLAIMKPEIVFFGENLPEQFHRAMKYDKDEVDLLIVIGSSLKVRPVALIPSSIPHEVPQILINREPLPHLHFDVELLGDCDVIINELCHRLGGEYAKLCCNPVKLSEITEKPPRTQKELAYLSELPPTPLHVSEDSSSPERTSPPDSSVIVTLLDQAAKSNDDLDVSESKGCMEEKPQEVQTSRNVESIAEQMENPDLKNVGSSTGEKNERTSVAGTVRKCWPNRVAKEQISRRLDGNQYLFLPPNRYIFHGAEVYSDSEDDVLSSSSCGSNSDSGTCQSPSLEEPMEDESEIEEFYNGLEDEPDVPERAGGAGFGTDGDDQEAINEAISVKQEVTDMNYPSNKS
**Q.** Which results are given for B4?
**A.** deacetylation of acetylated Ku70 peptide by SIRT1 [9]: this residue is acetylated in vivo, but is both a poor substrate of SIRT1 (FIG. 8D) and plays no apparent role in Bax-mediated apoptosis in vivo; deacetylation of acetylated Ku70 peptide by recombinant SIRT1 (slot blot with pan-acetyl-lysine antibody; fluorogenic peptide assay) [10]: SIRT1 efficiently deacetylated the two lysines in the C-terminus of Ku70 that are critical for regulating Bax; deacetylation of acetylated Ku70 peptide by recombinant SIRT1 (slot blot with pan-acetyl-lysine antibody; fluorogenic peptide assay) [11]: SIRT1 efficiently deacetylated the two lysines in the C-terminus of Ku70 that are critical for regulating Bax
